Assay results: IntAct's records for PubMed 26416881

B1: MICOS complex subunit MIC19 (Saccharomyces cerevisiae), P43594 (parent)
chain: MGSNTSKVGAGAEKQQVYTPLTQIDFSQSLVSQLDSSKESDYVTKQNAEKFIEKKVSQRLSNLEVETLKKFEDTLNNSLLSDDDKDAVDGISSSSLNNQIESLNKKLTLFDQLELQKLEKYGGAKGKSDKKTDNGSISIKAKLTECLLANKGKPLNCYEEMEEFKKLVMG
partner: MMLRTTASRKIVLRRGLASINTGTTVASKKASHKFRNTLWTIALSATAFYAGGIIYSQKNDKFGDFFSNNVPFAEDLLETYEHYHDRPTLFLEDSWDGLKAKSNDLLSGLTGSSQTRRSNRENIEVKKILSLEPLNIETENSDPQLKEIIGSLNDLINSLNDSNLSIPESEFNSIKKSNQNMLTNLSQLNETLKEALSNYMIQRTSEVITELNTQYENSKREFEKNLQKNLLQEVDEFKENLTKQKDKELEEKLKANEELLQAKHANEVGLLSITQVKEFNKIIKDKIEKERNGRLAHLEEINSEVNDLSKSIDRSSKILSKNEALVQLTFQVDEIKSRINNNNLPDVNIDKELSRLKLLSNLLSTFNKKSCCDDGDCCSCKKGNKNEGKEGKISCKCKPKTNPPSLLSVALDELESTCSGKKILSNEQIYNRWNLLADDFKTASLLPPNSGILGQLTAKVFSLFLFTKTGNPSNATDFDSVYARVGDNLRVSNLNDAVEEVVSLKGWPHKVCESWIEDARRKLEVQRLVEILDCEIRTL

Variants of: B1
Conditions: with mic60_yeast MIC60, P36112

effect of a mutation on the interaction | Variant
decreasing interaction strength | MGSNTSKVGAGAEKQQVYTPLTQIDFSQSLVSQLDSSKESDYVTKQNAEKFIEKKVSQRLSNLEVETLKKFEDTLNNSLLSDDDKDAVDGISSSSLNNQIESLNKKLTLFDQLELQKLEKYGGAKGKSDKKTDNGSISIKAKLTECLLANKGKPLNSYEEMEEFKKLVMG
with no effect | MGSNTSKVGAGAEKQQVYTPLTQIDFSQSLVSQLDSSKESDYVTKQNAEKFIEKKVSQRLSNLEVETLKKFEDTLNNSLLSDDDKDAVDGISSSSLNNQIESLNKKLTLFDQLELQKLEKYGGAKGKSDKKTDNGSISIKAKLTESLLANKGKPLNCYEEMEEFKKLVMG
